# Results taken from article PMC6713497, “Dimeric structures of quinol-dependent nitric oxide reductases (qNORs) revealed by cryo–electron microscopy” (Science Advances, 2019).
# B1: AxqNOR-BRIL (quinol-dependent nitric oxide reductase from Alcaligenes xylosoxidans fused with apocytochrome b562) (enzyme)
# chain: not shown
# Target: the molecule itself
# Assay: cryo-EM structure; single-particle cryo-EM of detergent-solubilised qNOR-BRIL (50 mM tris, 150 mM NaCl, 0.05% DTM; wild type pH 7.0 at 3 mg/ml, Val495Ala pH 7.5 at 5 mg/ml), C2 symmetry imposed
protein,measurement,value
B1,stoichiometry N,2
